Reference: patent US12527847B1, “Compositions and methods for reducing blood ethanol concentration through alcohol dehydrogenase and acetaldehyde scavengers” (Goa Therapeutics Corporation, priority 2025, dated 2026)

Assays:
[1] = tested on: HepG2 Liver Cells; assay: HepG2 cell viability under EtOH exposure (MTT assay); format: cell-based; details: HepG2, 100 mM EtOH for 24 hours
Experimental: (§1) Cells were exposed to 100 mM EtOH for 24 hours. Group 1 (Control): EtOH only; Group 2: EtOH+ADH; Group 3: EtOH+AcH scavenger-containing composition; and Group 4 (Combined): EtOH+ADH+AcH scavenger-containing composition.
(§2) Cell viability was detected by MTT assay (absorbance at 570 nm). ROS (Reactive Oxygen Species) was detected by DCFH-DA assay (fluorescence at 488 nm).

[2] = tested on: ADH purified from Saccharomyces cerevisiae; assay: Enzyme kinetics of ADH with AcH scavengers (Michaelis-Menten, NADH production at 340 nm); format: biochemical; details: pH 7.4, 37° C., 5 min incubation
Experimental: ADH purified from Saccharomyces cerevisiae (500 U/mg protein) was used. EtOH Concentrations: 5, 10, 20, 50, 100, 200 mM. Reaction Volume: 1 mL with 100 mM sodium phosphate buffer (pH 7.4). 37° C., 5 min incubation. NADH production measured at 340 nm using a spectrophotometer. Two groups: a) control ADH+EtOH; and b) ADH+EtOH+AcH scavenger mixture.

[3] = In vitro AcH concentration after ADH and AcH scavengers (modified Hantzsch reaction assay, 412 nm); format: biochemical; details: 100 mM EtOH start, 200 U ADH, 455 mg scavenger mixture, pH 7.4, 37° C., 30 minutes
Experimental: (§3) An in vitro study was conducted to evaluate the effect of a combined formulation of ADH and AcH scavengers on the reduction of EtOH and AcH concentrations. The study was designed to assess the enzymatic conversion of EtOH to AcH by ADH and the subsequent removal of AcH by scavengers. The experiment was performed using enzyme preparation from yeast (Saccharomyces cerevisiae).
(§4) The following materials and reagents were used: EtOH 99.9% pure, analytical grade and ADH purified from Saccharomyces cerevisiae (500 U/mg protein) (SEQ ID NO: 1, see Table 1). AcH scavenger-containing composition (total 455 mg): Thiamine hydrochloride (Vitamin B1): 100 mg; Glutathione (GSH): 15 mg; NAC (N-Acetyl-Cysteine) OR L-Cysteine: 200 mg; α-Lipoic acid: 40 mg; Pyridoxine hydrochloride (Vitamin B6): 100 mg and buffer Solution: 100 mM sodium phosphate buffer, pH 7.4.
(§5) The experiment was conducted in triplicate with appropriate controls to ensure reproducibility. […]
(§6) EtOH concentration was measured using a NAD/NADH-based enzymatic assay with a spectrophotometer at 340 nm. AcH concentration was measured using a modified Hantzsch reaction assay, which detects AcH at 412 nm.

[4] = In vitro reduction of EtOH by ADH and AcH scavengers (NAD/NADH-based enzymatic assay, 340 nm); format: biochemical; details: 200 U ADH, 455 mg scavenger mixture, pH 7.4, 37° C., 30 minutes
Experimental: as §3, §4, §5, §6

[5] = In vivo blood EtOH concentration in rodents after oral EtOH; design: species or system Sprague-Dawley rats; details: rat blood, 2 g/kg EtOH oral, ADH 600 U/kg IP
Experimental: The study was performed to evaluate the efficacy of a combined formulation of ADH and AcH scavengers in reducing blood EtOH and AcH concentrations in an in vivo rodent model.
12 male Sprague-Dawley rats (200 to 250 g), housed under standard conditions (12-hour light/dark cycle, 22±2° C.) were administered with 2 g/kg EtOH orally via gavage.
Groups (n=3): Group 1 (Control): EtOH only (no ADH or scavengers). Group 2: EtOH+ADH (600 U/kg, intraperitoneally). Group 3: EtOH+AcH scavenger-containing composition. Group 4 (Combined): EtOH+ADH (600 U/kg, IP)+AcH scavenger-containing composition.
Blood samples were collected from the tail vein at 0, 15, 30, 60, and 120 minutes post-EtOH administration. EtOH concentration was measured using a NAD/NADH-based enzymatic assay.

[6] = tested on: ADH; assay: Stability and degradation profile of ADH in the presence of AcH scavengers over time; format: physicochemical, Saccharomyces cerevisiae; details: 37° C., gentle shaking
Experimental: Conditions: 37° C. for up to 60 min with gentle shaking (100 rpm), ADH activity assessed via NADH production (340 nm). AcH scavenger-containing composition (total 455 mg): Thiamine hydrochloride (Vitamin B1): 100 mg; Glutathione (GSH): 15 mg; NAC (N-Acetyl-Cysteine) OR L-Cysteine: 200 mg; α-Lipoic acid: 40 mg; Pyridoxine hydrochloride (Vitamin B6): 100 mg and buffer Solution: 100 mM sodium phosphate buffer, pH 7.4.

[7] = tested on: HepG2 Liver Cells; assay: HepG2 ROS under EtOH exposure (DCFH-DA assay); format: cell-based; details: HepG2, 100 mM EtOH for 24 hours
Experimental: as §1, §2

B1: ADH: ADH purified from Saccharomyces cerevisiae (500 U/mg protein), SEQ ID NO: 1 (protein, listed as Saccharomyces cerevisiae)
chain: MSTAVAVLTSNADTDIFAKPVAGVDGSHVIDAAAVFGLGKETVVDALKDYKTGATTPAVAQKLGVEGAKALVGVPQKVESNDFFVAKAKDAGTEVIVGGMGGVGLSAIGASLKPGYELDKAKIEVASKLAAGAKVTVITPQCGHEVIVGVPPDSQNLSMRIAQLGGKSPFTKEKDLNYFAVEKAKELGATGSKIINLIMGKVMPEGQKIHLGHEIVGDLGVVTKDAASGKLPIISIGHEAVKNAVKVLENAELEGLTKEGAKVTVVGNPQIYSDDHVAVAGTSLSTLNKLLDAIKKADTSKPIQEVLSDKAKEVGIEEGLMTTVHAITGAAGAASALPFGVTAAL
Cell viability (%) ([1]; MTT): 67.1%
Overall Impact on Viability (in words) ([1]; results interpretation): Viability increases
Vmax ([2]; EtOH 5-200 mM): 105.2 µmol/min
kcat ([2]; EtOH 5-200 mM): 105.2
Km ([2]; substrate EtOH 5-200 mM): 32.5 mM
AcH Final [3]: 235 µM
EtOH Final ([4]; 100 mM EtOH start): 85.8 mM
EtOH Reduction (%) ([4]; 100 mM EtOH, 1 mL): 14.2%
EtOH concentration (% of control) ([5]; 0 min): 95 % of control
EtOH concentration (% of control) ([5]; 15 min): 85.2 % of control
EtOH concentration (% of control) ([5]; 30 min): 75.8 % of control
EtOH concentration (% of control) ([5]; 60 min): 68 % of control
EtOH concentration (% of control) ([5]; 120 min): 44.8 % of control
ADH activity (% of t = 0) ([6]; 30 min): 87 % of t = 0
ADH activity (% of t = 0) ([6]; 60 min): 62 % of t = 0
ROS (% of control) ([7]; DCFH-DA, control = EtOH only): 85.6 % of control
ROS Impact (in words) ([7]; results interpretation): Moderate ROS
